Measurements from patent publication US20220289861A1.

Legend:
[1] = target: recombinant murine CD163 (R&D Systems, No. 7435-CD-050) (murine) (UniProt Q2VLH6); assay: ELISA on plate-coated recombinant murine CD163 (5 ug/mL)
[2] = target: truncated human CD163 ECD SRCR domain 1-5 fragment with C-terminus histidine tag (human) (UniProt Q86VB7); assay: ratio of EC50 on huCD163 SRCR 1-5 to EC50 on huCD163 ECD
truncated human CD163 ECD SRCR domain 1-5 fragment with C-terminus histidine tag (human), sequence (Q86VB7 42-578 limits assumed): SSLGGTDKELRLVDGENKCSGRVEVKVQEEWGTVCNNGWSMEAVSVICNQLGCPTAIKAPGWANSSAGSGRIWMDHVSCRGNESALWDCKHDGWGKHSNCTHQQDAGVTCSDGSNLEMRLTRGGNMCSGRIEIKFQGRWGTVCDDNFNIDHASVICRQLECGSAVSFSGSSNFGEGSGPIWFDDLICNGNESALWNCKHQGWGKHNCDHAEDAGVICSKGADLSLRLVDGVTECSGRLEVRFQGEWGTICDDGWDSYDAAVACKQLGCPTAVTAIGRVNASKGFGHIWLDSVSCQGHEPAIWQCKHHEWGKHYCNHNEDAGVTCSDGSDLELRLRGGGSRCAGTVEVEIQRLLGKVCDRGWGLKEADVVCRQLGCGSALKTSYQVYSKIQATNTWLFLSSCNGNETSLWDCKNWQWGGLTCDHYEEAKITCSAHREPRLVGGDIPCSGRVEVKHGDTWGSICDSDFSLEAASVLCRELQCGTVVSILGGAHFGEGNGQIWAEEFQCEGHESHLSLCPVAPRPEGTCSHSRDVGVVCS

recombinant murine CD163 (R&D Systems, No. 7435-CD-050) (murine), sequence (Q2VLH6 39-1045 limits assumed): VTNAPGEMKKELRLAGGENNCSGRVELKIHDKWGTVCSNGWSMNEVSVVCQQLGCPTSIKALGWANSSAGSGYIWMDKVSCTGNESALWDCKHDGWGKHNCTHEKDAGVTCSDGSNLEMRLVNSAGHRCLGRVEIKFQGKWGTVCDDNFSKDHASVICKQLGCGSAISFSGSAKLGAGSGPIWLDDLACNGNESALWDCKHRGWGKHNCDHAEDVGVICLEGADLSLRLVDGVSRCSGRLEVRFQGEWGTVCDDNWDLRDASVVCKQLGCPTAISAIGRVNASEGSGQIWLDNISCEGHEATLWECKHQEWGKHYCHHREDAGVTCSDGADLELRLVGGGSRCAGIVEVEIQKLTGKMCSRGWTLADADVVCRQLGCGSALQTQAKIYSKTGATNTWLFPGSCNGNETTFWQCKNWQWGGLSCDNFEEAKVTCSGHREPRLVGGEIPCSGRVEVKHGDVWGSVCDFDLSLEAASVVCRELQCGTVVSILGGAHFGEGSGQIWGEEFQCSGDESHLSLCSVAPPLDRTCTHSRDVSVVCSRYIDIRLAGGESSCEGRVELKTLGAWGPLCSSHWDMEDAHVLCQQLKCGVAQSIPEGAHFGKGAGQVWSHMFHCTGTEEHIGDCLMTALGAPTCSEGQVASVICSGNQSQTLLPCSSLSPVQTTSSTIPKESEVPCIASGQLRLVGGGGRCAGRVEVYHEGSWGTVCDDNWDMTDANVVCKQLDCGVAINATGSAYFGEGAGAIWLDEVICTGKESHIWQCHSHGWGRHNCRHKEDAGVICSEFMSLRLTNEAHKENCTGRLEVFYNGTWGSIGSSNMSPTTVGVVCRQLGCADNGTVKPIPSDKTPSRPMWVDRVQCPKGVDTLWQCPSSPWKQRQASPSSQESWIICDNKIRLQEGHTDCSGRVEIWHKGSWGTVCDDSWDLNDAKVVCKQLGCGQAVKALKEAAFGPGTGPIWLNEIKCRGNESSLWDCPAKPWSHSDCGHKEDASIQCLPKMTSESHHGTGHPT

Row | EC50 (read off the curve) [1] | Ratio SRCR 1-5/ECD [2] | Substance
1 | 0.03 nM | – | commercially available rat anti-muCD163 antibody (Thermo Fisher Scientific #14-1631-82)
2 | – | 0.96 | EDHu-1 (antibody)
3 | – | 1.17 | 215927 (antibody)
